The target of test [1] is T1, human A33 transmembrane glycoprotein expressed on stably transfected murine colorectal carcinoma cells (Homo sapiens (Human)., UniProt Q99795). Description: immunostaining of cells or tissue.
The target in test [2] is T1, human A33 transmembrane glycoprotein …. The experiment in a line: flow cytometry on cells. (Flow cytometry measures light scatter and fluorescence of single cells or particles in a stream.)
Test [3] concerns the target A33 in human colon and human colon adenocarcinoma tissue sections (Homo sapiens (Human)., UniProt Q99795). Description: immunostaining of cells or tissue.

T1 sequence (Q99795 22-319): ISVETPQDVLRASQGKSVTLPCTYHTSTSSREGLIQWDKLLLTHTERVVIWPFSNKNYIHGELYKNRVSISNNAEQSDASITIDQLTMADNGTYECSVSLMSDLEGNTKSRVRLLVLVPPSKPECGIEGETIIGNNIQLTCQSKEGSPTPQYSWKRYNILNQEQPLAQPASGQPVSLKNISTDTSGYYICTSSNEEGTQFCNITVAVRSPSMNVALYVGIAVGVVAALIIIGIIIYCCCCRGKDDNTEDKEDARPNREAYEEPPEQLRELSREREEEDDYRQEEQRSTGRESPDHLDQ
Sequence of A33 in human colon and human colon adenocarcinoma tissue sections (Q99795 22-319): as above

B1: FITC-labeled IgG2a(MG) (antibody, V domains shown)
VH: QVQLQQSGPELVKPGASVKISCKASGYTFSGSWMNWVKQRPGQGLEWIGRIYPGDGETNYNGKFKDKATLTADKSSTTAYMELSSLTSVDSAVYFCARIYGNNVYFDVWGAGTTVTVSS
VL: QIVLTQSPAIMSASPGERVTMTCSARSSISFMYWYQQKPGSSPRLLIYDTSNLASGVPVRFSGSGSGTSYSLTISRMEAEDAATYYCQQWSSYPLTFGSGTKLELK
As for B1, the binding result in test [1] was “binds”.

B2: IgG2a(K), murine anti-A33 antibody K in murine IgG2a format (antibody, V domains shown)
VH: EVKLVESGGGLVKPGGSLKLSCAASGFAFSTYDMSWVRQTPEKRLEWVATISSGGSYTYYLDSVKGRFTISRDSARNTLYLQMSSLRSEDTALYYCAPTTVVPFAYWGQGTLVTVSA
VL: DIVMTQSQKFMSTSVGDRVSITCKASQNVRTVVAWYQQKPGQSPKTLIYLASNRHTGVPDRFTGSGSGTDFTLTISNVQSEDLADYFCLQHWSYPLTFGSGTKLEVK
As for B2, the binding result in test [2] and in test [3] was “binds” each time.

B3: FITC-labeled IgG2a(K) (antibody, V domains shown)
VH: EVKLVESGGGLVKPGGSLKLSCAASGFAFSTYDMSWVRQTPEKRLEWVATISSGGSYTYYLDSVKGRFTISRDSARNTLYLQMSSLRSEDTALYYCAPTTVVPFAYWGQGTLVTVSA
VL: DIVMTQSQKFMSTSVGDRVSITCKASQNVRTVVAWYQQKPGQSPKTLIYLASNRHTGVPDRFTGSGSGTDFTLTISNVQSEDLADYFCLQHWSYPLTFGSGTKLEVK
With B3, the binding result in test [1] was “binds”.

Source of the values: article PMC6999842 (mAbs, 2020).
